This is an account of results in patent US11584938B2, “Plant EPSPS mutant containing L195P and S247G mutations and encoding gene and use thereof” (GEVOTO LLC, priority 2017, dated 2023).

The subject of this experiment is transgenic rice plants. Nature of the experiment: glyphosate resistance of the EPSPS mutant in transgenic rice plants sprayed with Roundup 41% ammonium glyphosate. Format: in vivo, rice (Nipponbare). Summed up:
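EPSPS mutant genes were cloned into pGVP1 and introduced into Nipponbare rice embryo-derived calluses via Agrobacterium EHA105 (OD 0.2, 10 min infection, 2–3 days co-culture at 25 °C in the dark). Calluses went through recovery, two 14-day screening rounds at 30 °C, two differentiation rounds and rooting to regenerate transgenic plants.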

Where [1] appears, read: 1× dosage 1060 g/hectare glyphosate sprayed, recorded on 10th day.
[2] abbreviates: 2× dosage 2120 g/hectare sprayed to plants surviving 1×, recorded 10 days later.
Setting [3] is: 5× dosage 5300 g/hectare sprayed to plants surviving 2×, recorded 10 days later.
[4] abbreviates: 20× dosage 21200 g/hectare sprayed to plants surviving 5×, recorded 10 days later.

Numbering of substitutions follows the chain as printed.

B1: R3: rice EPSPS mutant, SEQ ID NO: 34, mutations L214(195)P and P116(101)S (protein)
chain: MASNAAAAAAKAEEIVLQPIREISGAVQLPGSKSLSNRILLLSALSEGTTVVDNLLNSEDVHYMLEALKALGLSVEADKVAKRAVVVGCGGKFPVEKDAKEEVQLFLGNAGTAMRSLTAAVTAAGGNATYVLDGVPRMRERPIGDLVVGLKQLGADVDCFLGTECPPVRVKGIGGLPGGKVKLSGSISSQYLSALLMAAPLALGDVEIEIIDKPISIPYVEMTLRLMERFGVKAEHSDSWDRFYIKGGQKYKSPGNAYVEGDASSASYFLAGAAITGGTVTVQGCGTTSLQGDVKFAEVLEMMGAKVTWTDTSVTVTGPPREPYGKKHLKAVDVNMNKMPDVAMTLAVVALFADGPTAIRDVASWRVKETERMVAIRTELTKLGASVEEGPDYCIITPPEKLNITAIDTYDDHRMAMAFSLAACADVPVTIRDPGCTRKTFPNYFDVLSTFVRN
On to B1, for which, under setting [1], the “%++&+++ (percentage of plant having medium and high glyphosate resistance to the total number of plants observed)” value was determined as 76.8%; the “number of plants denoted by + (low glyphosate resistance)” value (“number … (low glyphosate resistance)” below) is on record as 18; the “number of plants denoted by ++ (medium glyphosate resistance)” value (from here on “number … (medium glyphosate resistance)”) is listed as 39; the “number of plants denoted by +++ (high glyphosate resistance)” value (“number of plants denoted by +++” for short) was 24. Also, the “number of plants denoted by − (no glyphosate resistance)” value (from here on “number … (no glyphosate resistance)”) under setting [1] is given as 1. Besides, for the setting “1× glyphosate dosage”, the “glyphosate resistance / survival of the rice transformed by the EPSPS, in words” value (from here on “glyphosate resistance / survival”) is reported as “had relatively high resistance to glyphosate”. In addition, under setting [2], the “%++&+++ (percentage of plant having medium and high glyphosate resistance to the total number of plants observed)” value is given as 7.5%; the “number … (low glyphosate resistance)” value is 59; the “number … (medium glyphosate resistance)” value came to 12; the “number of plants denoted by +++” value is recorded as 10. In addition, the “number … (no glyphosate resistance)” value under setting [2] is reported as 1. For the same molecule, the “glyphosate resistance / survival” value (2× glyphosate dosage) is on record as “had relatively high resistance to glyphosate”. Further, under setting [3], the “&++&+++ (percentage of plant having medium and high glyphosate resistance to the total number of plants observed)” value stood at 13.4%; the “number … (low glyphosate resistance)” value is reported as 59; the “number … (medium glyphosate resistance)” value was found to be 11; the “number of plants denoted by +++” value is 0. Besides, under setting [3], the “number … (no glyphosate resistance)” value worked out at 12. Under setting [4], the “&++&+++ (percentage of plant having medium and high glyphosate resistance to the total number of plants observed)” value stood at 7.3%; the “number … (low glyphosate resistance)” value is listed as 28; the “number … (medium glyphosate resistance)” value worked out at 6; the “number of plants denoted by +++” value was found to be 0. Moreover, the “number … (no glyphosate resistance)” value under setting [4] is listed as 48.

B2: R4: rice EPSPS mutant, SEQ ID NO: 36, mutation S267(247)G (protein)
chain: B1 chain with S116P, P214L, S267G
Consider B2, for which the “%++&+++ (percentage of plant having medium and high glyphosate resistance to the total number of plants observed)” value under setting [1] is 66.7%. The “number … (low glyphosate resistance)” value reads like this: under setting [1], 46; under setting [2], 136; under setting [3], 67; under setting [4], 8. The “number … (medium glyphosate resistance)” value under setting [1] is 62, the “number … (medium glyphosate resistance)” value under setting [2] was determined as 10, the “number … (medium glyphosate resistance)” value under setting [3] is listed as 0 and the “number … (medium glyphosate resistance)” value under setting [4] worked out at 0. Besides, the “number of plants denoted by +++” value is, setting by setting: under setting [1], 44; under setting [2], 2; under setting [3], 0; under setting [4], 0. In addition, the “number … (no glyphosate resistance)” value stood at 7 under setting [1], 11 under setting [2], 92 under setting [3] and 151 under setting [4]. Further, the “glyphosate resistance / survival” value by setting is: (1× glyphosate dosage) “obviously superior to that of the rice seedlings transformed by R0”; (2× glyphosate dosage) “some of the transgenic rice seedlings transformed by R1 and R4 still survived”; (5× glyphosate dosage) “some of the transgenic rice seedlings transformed by R1 and R4 still survived”; (20× glyphosate dosage) “some of the transgenic rice seedlings transformed by R1 and R4 still survived”. The “&++&+++ (percentage of plant having medium and high glyphosate resistance to the total number of plants observed)” value is, setting by setting: under setting [3], 0.0%; under setting [4], 0.0%.

B3: R5: rice EPSPS mutant, SEQ ID NO: 38, mutations S267(247)G and P116(101)S (protein)
chain: B1 chain with P214L, S267G
For B3, under setting [1], the “%++&+++ (percentage of plant having medium and high glyphosate resistance to the total number of plants observed)” value stood at 84.2%; the “number … (low glyphosate resistance)” value was 0; the “number … (medium glyphosate resistance)” value is recorded as 6; the “number of plants denoted by +++” value was 10. Moreover, the “number … (no glyphosate resistance)” value under setting [1] was found to be 3. For the same molecule, the “glyphosate resistance / survival” value (1× glyphosate dosage) was “had relatively high resistance to glyphosate”. Moreover, under setting [2], the “%++&+++ (percentage of plant having medium and high glyphosate resistance to the total number of plants observed)” value was determined as 63.3%; the “number … (low glyphosate resistance)” value is 3; the “number … (medium glyphosate resistance)” value is reported as 6; the “number of plants denoted by +++” value is given as 4. Further, under setting [2], the “number … (no glyphosate resistance)” value is 6. Moreover, where the note is “2× glyphosate dosage”, the “glyphosate resistance / survival” value was “had relatively high resistance to glyphosate”. For the same molecule, under setting [3], the “&++&+++ (percentage of plant having medium and high glyphosate resistance to the total number of plants observed)” value amounted to 42.1%; the “number … (low glyphosate resistance)” value was 3; the “number … (medium glyphosate resistance)” value came to 8; the “number of plants denoted by +++” value amounted to 0. Also, the “number … (no glyphosate resistance)” value under setting [3] was determined as 8. Under setting [4], the “&++&+++ (percentage of plant having medium and high glyphosate resistance to the total number of plants observed)” value was 0.0%; the “number … (low glyphosate resistance)” value is listed as 8; the “number … (medium glyphosate resistance)” value is given as 0; the “number of plants denoted by +++” value was found to be 0. In addition, the “number … (no glyphosate resistance)” value under setting [4] is reported as 11.
